Biological target: collagen model peptide Ac-(PPG)2PTGPRG(PPG)2-NH2
Test: crystal structure; HSP47 H273N/H274N with Ac-(PPG)2PTGPRG(PPG)2-NH2, space group P2_(1); crystallization conditions not told

- stoichiometry N (HSP47 per collagen triple helix): 2
Substance: HSP47 double-mutant H273N/H274N (natural protein)

From article PMC8626583, “Collagen’s primary structure determines collagen:HSP47 complex stoichiometry” (The Journal of Biological Chemistry, 2021)
